The values below come from paper PMC4183369.

Bounds are passed on as bounds.

In this test the target is gp59(C42)-Cy3, helicase loader protein of the T4 bacteriophage DNA replisome (bacteriophage T4) (UniProt P13342). Briefly: FRET or BRET.
Chain of UniProt P13342 (P13342 whole entry): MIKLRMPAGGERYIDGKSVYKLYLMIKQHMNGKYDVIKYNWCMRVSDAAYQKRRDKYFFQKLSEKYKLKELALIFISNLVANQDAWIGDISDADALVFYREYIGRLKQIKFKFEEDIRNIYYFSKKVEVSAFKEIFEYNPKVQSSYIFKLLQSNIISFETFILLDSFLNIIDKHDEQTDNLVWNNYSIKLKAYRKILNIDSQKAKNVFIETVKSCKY

“Cy5-N-gp43(exo-), T4 gp43 polymerase (from UniProt P04415 1-898) (enzyme)” registered a duration of a single FRET event of over 80 s.
